{"source": "paper PMC6570480", "about": "“PLK4 promotes centriole duplication by phosphorylating STIL to link the procentriole cartwheel to the microtubule wall” (eLife, 2019)", "key": {"[1]": {"target": "CPAP (UniProt Q9HC77)", "assay": "GFP-binding-protein co-IP, immunoblot", "conditions": "sites S428"}, "[2]": {"target": "CPAP (UniProt Q9HC77)", "assay": "immunofluorescence co-localisation at GFP-STIL/PLK4 foci", "conditions": "reference: WT Myc-GFP-STIL; sites S428"}, "[3]": {"target": "CPAP TCP domain, 1142-1338 (UniProt Q9HC77)", "assay": "GST pull-down, immunoblot", "conditions": "sites S428"}, "[4]": {"target": "DmSas4", "assay": "co-IP, immunoblot", "conditions": "reference: WT Ana2, no DmPLK4SBM-mCherry; sites S38"}, "[5]": {"target": "T1, Recombinant full-length GST-STIL (WT) phosphorylated in vitro by the His-PLK4 kinase domain (human, UniProt Q15468 1-1287, phosphoserine at 428 and phosphorylation at multiple other sites (84 in vitro phosphorylation sites identified on STIL), by the 6xHis-PLK4 kinase domain)", "T1 construct": "STIL, human, full length; also called GST-hSTIL; phosphorylated WT GST-STIL; source: SF9 insect cells (Bac-to-Bac), purified (Glutathione Sepharose); phosphorylated on beads by 6xHis-hPlk4 (a.a. 1–416) with ATP; not shown: GST, N-terminal, kept", "T1 sequence (looked up)": "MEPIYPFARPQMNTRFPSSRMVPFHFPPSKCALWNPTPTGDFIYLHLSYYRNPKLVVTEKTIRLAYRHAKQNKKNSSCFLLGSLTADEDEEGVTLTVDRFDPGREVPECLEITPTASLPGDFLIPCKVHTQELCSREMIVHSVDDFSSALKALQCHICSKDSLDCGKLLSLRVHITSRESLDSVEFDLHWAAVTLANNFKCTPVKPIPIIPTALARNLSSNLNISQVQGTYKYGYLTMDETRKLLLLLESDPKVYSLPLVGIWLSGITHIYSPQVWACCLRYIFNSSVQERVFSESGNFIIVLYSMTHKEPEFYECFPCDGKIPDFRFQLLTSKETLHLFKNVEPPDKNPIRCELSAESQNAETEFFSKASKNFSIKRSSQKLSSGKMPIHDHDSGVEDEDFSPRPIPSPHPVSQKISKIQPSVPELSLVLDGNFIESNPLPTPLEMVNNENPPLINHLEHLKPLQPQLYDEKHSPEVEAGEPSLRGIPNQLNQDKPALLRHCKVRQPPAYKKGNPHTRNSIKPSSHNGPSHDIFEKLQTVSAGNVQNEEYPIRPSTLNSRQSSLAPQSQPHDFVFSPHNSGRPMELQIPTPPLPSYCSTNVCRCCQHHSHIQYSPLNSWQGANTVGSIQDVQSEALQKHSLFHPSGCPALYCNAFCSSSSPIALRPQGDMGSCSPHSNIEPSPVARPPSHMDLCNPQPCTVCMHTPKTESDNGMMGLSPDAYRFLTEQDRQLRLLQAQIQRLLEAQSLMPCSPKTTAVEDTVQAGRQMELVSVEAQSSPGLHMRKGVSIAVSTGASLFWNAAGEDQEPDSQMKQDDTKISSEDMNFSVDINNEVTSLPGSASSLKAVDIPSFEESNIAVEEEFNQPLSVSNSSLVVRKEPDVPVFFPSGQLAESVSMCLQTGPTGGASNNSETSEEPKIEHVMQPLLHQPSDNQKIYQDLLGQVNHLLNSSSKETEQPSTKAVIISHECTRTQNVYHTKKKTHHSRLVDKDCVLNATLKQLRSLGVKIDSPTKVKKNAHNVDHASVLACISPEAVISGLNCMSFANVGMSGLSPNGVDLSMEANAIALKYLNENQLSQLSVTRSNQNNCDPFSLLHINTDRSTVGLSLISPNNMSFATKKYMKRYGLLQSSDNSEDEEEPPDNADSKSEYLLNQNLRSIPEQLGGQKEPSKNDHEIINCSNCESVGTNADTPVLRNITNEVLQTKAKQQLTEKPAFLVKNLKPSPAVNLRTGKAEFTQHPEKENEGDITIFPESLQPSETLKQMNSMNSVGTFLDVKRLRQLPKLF", "assay": "pull-down; GST-hSTIL bound to GSH resin, incubated with 6xHis-hPlk4 (a.a. 1–416) with or without 10 µM ATP at 33°C for two hours, then with Flag-CPAP TCP domain for 2 hr at 4°C in 50 mM Na-HEPES pH 7.5, 400 mM NaCl, 2 mM MgCl2, 1 mM EGTA, 1 mM DTT, 0.15% Triton-X 100, 0.5 mg/ml BSA; immunoblot", "conditions": "both partners purified"}, "[6]": {"target": "T2, Recombinant full-length GST-STIL S428A phosphorylated in vitro by the His-PLK4 kinase domain (human, UniProt Q15468 1-1287, S428A, phosphorylated at multiple sites by the 6xHis-PLK4 kinase domain (not at 428))", "T2 construct": "STIL, human, full length; also called S428A GST-STIL; source: SF9 insect cells (Bac-to-Bac), purified (Glutathione Sepharose); phosphorylated on beads by 6xHis-hPlk4 (a.a. 1–416) with ATP; not shown: GST, N-terminal, kept", "T2 sequence (looked up)": "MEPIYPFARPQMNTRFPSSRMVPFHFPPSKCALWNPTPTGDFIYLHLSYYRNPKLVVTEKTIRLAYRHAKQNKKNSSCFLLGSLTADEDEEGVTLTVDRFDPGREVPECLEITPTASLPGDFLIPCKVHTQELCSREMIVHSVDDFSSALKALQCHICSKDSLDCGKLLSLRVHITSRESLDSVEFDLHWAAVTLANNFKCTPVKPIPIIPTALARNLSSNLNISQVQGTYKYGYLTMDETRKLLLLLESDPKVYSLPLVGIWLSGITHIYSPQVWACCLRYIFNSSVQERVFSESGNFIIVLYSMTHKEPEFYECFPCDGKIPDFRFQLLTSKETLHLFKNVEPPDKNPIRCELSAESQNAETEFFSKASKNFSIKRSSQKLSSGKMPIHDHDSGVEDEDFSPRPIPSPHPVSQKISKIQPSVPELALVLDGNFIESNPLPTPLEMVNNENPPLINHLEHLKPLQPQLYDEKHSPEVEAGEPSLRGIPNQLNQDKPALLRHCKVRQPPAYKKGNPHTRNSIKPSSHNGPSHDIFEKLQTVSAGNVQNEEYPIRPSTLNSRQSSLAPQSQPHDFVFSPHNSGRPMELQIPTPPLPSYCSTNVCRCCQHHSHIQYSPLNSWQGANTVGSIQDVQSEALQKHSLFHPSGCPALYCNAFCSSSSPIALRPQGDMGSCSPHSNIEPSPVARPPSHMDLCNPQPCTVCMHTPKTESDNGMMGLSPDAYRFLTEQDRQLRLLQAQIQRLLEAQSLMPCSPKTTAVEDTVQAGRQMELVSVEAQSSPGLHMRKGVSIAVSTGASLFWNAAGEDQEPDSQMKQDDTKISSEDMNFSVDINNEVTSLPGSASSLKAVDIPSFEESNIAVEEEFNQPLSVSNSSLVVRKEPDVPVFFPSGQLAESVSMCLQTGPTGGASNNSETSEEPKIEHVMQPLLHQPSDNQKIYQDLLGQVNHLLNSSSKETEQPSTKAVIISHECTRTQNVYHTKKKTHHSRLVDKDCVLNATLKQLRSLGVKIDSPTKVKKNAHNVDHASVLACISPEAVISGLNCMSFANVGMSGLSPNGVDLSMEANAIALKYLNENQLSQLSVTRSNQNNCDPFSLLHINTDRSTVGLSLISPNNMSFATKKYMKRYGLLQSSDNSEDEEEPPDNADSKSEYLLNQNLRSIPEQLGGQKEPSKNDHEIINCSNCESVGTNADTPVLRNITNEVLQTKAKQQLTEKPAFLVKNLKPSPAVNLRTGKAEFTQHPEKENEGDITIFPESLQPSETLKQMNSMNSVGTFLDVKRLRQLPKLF", "assay": "pull-down; GST-hSTIL bound to GSH resin, incubated with 6xHis-hPlk4 (a.a. 1–416) with or without 10 µM ATP at 33°C for two hours, then with Flag-CPAP TCP domain for 2 hr at 4°C in 50 mM Na-HEPES pH 7.5, 400 mM NaCl, 2 mM MgCl2, 1 mM EGTA, 1 mM DTT, 0.15% Triton-X 100, 0.5 mg/ml BSA; immunoblot", "conditions": "both partners purified"}, "[7]": {"target": "T3, Recombinant full-length GST-STIL S428A, not phosphorylated (human, UniProt Q15468 1-1287, S428A)", "T3 construct": "STIL, human, full length; also called S428A GST-STIL; source: SF9 insect cells (Bac-to-Bac), purified (Glutathione Sepharose); incubated with 6xHis-hPlk4 (a.a. 1–416) without ATP; not shown: GST, N-terminal, kept", "T3 sequence (looked up)": "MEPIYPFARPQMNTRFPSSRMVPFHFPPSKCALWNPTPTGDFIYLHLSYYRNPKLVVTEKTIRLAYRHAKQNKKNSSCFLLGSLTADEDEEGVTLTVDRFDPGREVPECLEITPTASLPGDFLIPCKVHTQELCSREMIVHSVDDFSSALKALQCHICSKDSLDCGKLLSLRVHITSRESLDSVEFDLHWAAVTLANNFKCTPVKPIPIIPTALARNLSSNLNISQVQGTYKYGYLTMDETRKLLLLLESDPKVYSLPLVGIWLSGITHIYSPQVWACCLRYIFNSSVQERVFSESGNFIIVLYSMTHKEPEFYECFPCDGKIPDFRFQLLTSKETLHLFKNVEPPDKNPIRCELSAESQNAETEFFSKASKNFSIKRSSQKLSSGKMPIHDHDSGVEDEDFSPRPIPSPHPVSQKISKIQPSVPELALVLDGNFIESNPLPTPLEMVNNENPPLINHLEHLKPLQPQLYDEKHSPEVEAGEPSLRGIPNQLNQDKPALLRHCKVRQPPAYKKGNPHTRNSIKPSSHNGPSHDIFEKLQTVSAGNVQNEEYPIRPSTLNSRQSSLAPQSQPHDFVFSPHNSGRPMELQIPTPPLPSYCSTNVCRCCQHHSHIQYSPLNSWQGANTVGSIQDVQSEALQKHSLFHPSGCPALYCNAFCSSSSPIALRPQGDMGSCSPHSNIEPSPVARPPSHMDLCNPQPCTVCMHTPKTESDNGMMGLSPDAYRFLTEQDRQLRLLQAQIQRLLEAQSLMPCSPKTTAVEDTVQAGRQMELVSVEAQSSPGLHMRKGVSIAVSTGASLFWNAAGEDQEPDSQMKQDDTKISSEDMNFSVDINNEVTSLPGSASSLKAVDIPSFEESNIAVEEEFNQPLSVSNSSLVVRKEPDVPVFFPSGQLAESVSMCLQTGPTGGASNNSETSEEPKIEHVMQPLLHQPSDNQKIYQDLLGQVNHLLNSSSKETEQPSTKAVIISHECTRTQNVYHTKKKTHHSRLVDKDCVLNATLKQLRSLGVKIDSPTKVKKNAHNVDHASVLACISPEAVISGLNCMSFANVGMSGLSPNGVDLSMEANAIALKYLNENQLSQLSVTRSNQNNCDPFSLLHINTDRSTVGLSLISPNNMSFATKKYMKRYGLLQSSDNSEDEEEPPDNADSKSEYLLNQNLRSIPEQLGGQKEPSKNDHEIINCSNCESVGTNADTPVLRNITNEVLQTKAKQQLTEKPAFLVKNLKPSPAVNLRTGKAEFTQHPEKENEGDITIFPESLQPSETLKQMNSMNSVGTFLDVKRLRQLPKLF", "assay": "pull-down; GST-hSTIL bound to GSH resin, incubated with 6xHis-hPlk4 (a.a. 1–416) with or without 10 µM ATP at 33°C for two hours, then with Flag-CPAP TCP domain for 2 hr at 4°C in 50 mM Na-HEPES pH 7.5, 400 mM NaCl, 2 mM MgCl2, 1 mM EGTA, 1 mM DTT, 0.15% Triton-X 100, 0.5 mg/ml BSA; immunoblot", "conditions": "both partners purified"}}}
{"molecule": "STIL (from UniProt Q15468) STIL S428A + kinase-active PLK4∆24-mCherry", "values": [{"measurement": "binding against the reference", "setting": "[1]; reference: WT STIL + kinase-active PLK4∆24-mCherry", "value": "weaker"}]}
{"molecule": "STIL (from UniProt Q15468) WT STIL + kinase-active PLK4∆24-mCherry", "values": [{"measurement": "fold change", "setting": "[1]; reference: WT STIL + kinase-dead PLK4∆24-mCherry", "value": "> 7"}]}
{"molecule": "STIL (from UniProt Q15468) Myc-GFP-STIL S428A", "values": [{"measurement": "other: percent reduction of CPAP at foci", "setting": "[2]", "value": "> 90", "unit": "%"}]}
{"molecule": "STIL (from UniProt Q15468) WT GST-STIL + His-PLK4 kinase domain + ATP", "values": [{"measurement": "fold change", "setting": "[3]; reference: WT GST-STIL + His-PLK4 kinase domain, no ATP", "value": 2.5}]}
{"molecule": "STIL (from UniProt Q15468) GST-STIL S428A, PLK4 + ATP", "values": [{"measurement": "binding against the reference", "setting": "[3]; reference: WT GST-STIL, PLK4 + ATP", "value": "weaker"}]}
{"molecule": "Ana2 WT Ana2 + DmPLK4SBM-mCherry", "values": [{"measurement": "fold change", "setting": "[4]", "value": "> 6"}]}
{"molecule": "Flag-CPAP TCP domain (aa 1142–1338) (domain or fragment, human, UniProt Q9HC77 1142-1338, looked up, CPAP (CENPJ), human, TCP domain, residues 1142–1338; Expressed as GST-Flag-CPAP TCP; also called Flag-TCP domain; Flag-TCP; source: E. coli Rosetta (DE3), purified; not shown: FLAG, N-terminal, kept) EEEEDQDIQGEISHPDGKVEKVYKNGCRVILFPNGTRKEVSADGKTITVTFFNGDVKQVMPDQRVIYYYAAAQTTHTTYPEGLEVLHFSSGQIEKHYPDGRKEITFPDQTVKNLFPDGQEESIFPDGTIVRVQRDGNKLIEFNNGQRELHTAQFKRREYPDGTVKTVYANGHQETKYRSGRIRVKDKEGNVLMDTEL", "values": [{"measurement": "fold increase in binding, phosphorylated against unphosphorylated GST-STIL", "setting": "[5]", "value": "~2.5", "unit": "fold"}, {"measurement": "binding result", "setting": "[6]", "value": "binds"}, {"measurement": "binding result", "setting": "[7]", "value": "binds"}]}
